Source: the RNAGym collection of RNA variant scans (doi:10.1021/acssynbio.7b00057)

B1: Pistol ribozyme (parent)
chain: GGGUCGUUGUUCCAUAAUCGCGUGGAUAUGGCACGCAAGUUUCUACCGGGCACCGUAAAUGUCCGACUGGAGCCGUUCGGGCGGCUAUAAACAGACCUCAGGCCCGAAGCGUGGCGGCACCUGCCGCCGGUGGUAAAAAAGAUCGGAAGAGCACACGUCU

Variants of: B1
Assay: aptazyme ON/OFF ratio, guanine; higher = stronger switching; co-transcriptional cleavage with and without guanine

Variant | aptazyme ON/OFF ratio
GGGUCGCUGACAUAUAAUCGCGUGGAUAUGGCACGCAAGUUUCUACCGGGCACCGUAAAUGUCCGACUGGAGCCGUUCGGGCGGCUAUAAACAGACCUCAGGCCCGAAGCGUGGCGGCACCUGCCGCCGGUGGUAAAAAAGAUCGGAAGAGCACACGUCU [U7C U10A U11C C12A C13U] | 1.1
GGGUCGCUGACAAAUAAUCGCGUGGAUAUGGCACGCAAGUUUCUACCGGGCACCGUAAAUGUCCGACUGGAGCCGUUCGGGCGGCUAUAAACAGACCUCAGGCCCGAAGCGUGGCGGCACCUGCCGCCGGUGGUAAAAAAGAUCGGAAGAGCACACGUCU [U7C U10A U11C C12A C13A] | 1.1
GGGUCGCUGACAGAUAAUCGCGUGGAUAUGGCACGCAAGUUUCUACCGGGCACCGUAAAUGUCCGACUGGAGCCGUUCGGGCGGCUAUAAACAGACCUCAGGCCCGAAGCGUGGCGGCACCUGCCGCCGGUGGUAAAAAAGAUCGGAAGAGCACACGUCU [U7C U10A U11C C12A C13G] | 1.12
GGGUCGCUGACUAAUAAUCGCGUGGAUAUGGCACGCAAGUUUCUACCGGGCACCGUAAAUGUCCGACUGGAGCCGUUCGGGCGGCUAUAAACAGACCUCAGGCCCGAAGCGUGGCGGCACCUGCCGCCGGUGGUAAAAAAGAUCGGAAGAGCACACGUCU [U7C U10A U11C C12U C13A] | 1.05
GGGUCGCUGACUGAUAAUCGCGUGGAUAUGGCACGCAAGUUUCUACCGGGCACCGUAAAUGUCCGACUGGAGCCGUUCGGGCGGCUAUAAACAGACCUCAGGCCCGAAGCGUGGCGGCACCUGCCGCCGGUGGUAAAAAAGAUCGGAAGAGCACACGUCU [U7C U10A U11C C12U C13G] | 1.07
GGGUCGCUGACUUAUAAUCGCGUGGAUAUGGCACGCAAGUUUCUACCGGGCACCGUAAAUGUCCGACUGGAGCCGUUCGGGCGGCUAUAAACAGACCUCAGGCCCGAAGCGUGGCGGCACCUGCCGCCGGUGGUAAAAAAGAUCGGAAGAGCACACGUCU [U7C U10A U11C C12U C13U] | 1.05
GGGUCGCUGAAGCAUAAUCGCGUGGAUAUGGCACGCAAGUUUCUACCGGGCACCGUAAAUGUCCGACUGGAGCCGUUCGGGCGGCUAUAAACAGACCUCAGGCCCGAAGCGUGGCGGCACCUGCCGCCGGUGGUAAAAAAGAUCGGAAGAGCACACGUCU [U7C U10A U11A C12G] | 1.28
GGGUCGCUGAAUCAUAAUCGCGUGGAUAUGGCACGCAAGUUUCUACCGGGCACCGUAAAUGUCCGACUGGAGCCGUUCGGGCGGCUAUAAACAGACCUCAGGCCCGAAGCGUGGCGGCACCUGCCGCCGGUGGUAAAAAAGAUCGGAAGAGCACACGUCU [U7C U10A U11A C12U] | 1.2
GGGUCGCUGAAACAUAAUCGCGUGGAUAUGGCACGCAAGUUUCUACCGGGCACCGUAAAUGUCCGACUGGAGCCGUUCGGGCGGCUAUAAACAGACCUCAGGCCCGAAGCGUGGCGGCACCUGCCGCCGGUGGUAAAAAAGAUCGGAAGAGCACACGUCU [U7C U10A U11A C12A] | 1.17
GGGUCGCUGACGAAUAAUCGCGUGGAUAUGGCACGCAAGUUUCUACCGGGCACCGUAAAUGUCCGACUGGAGCCGUUCGGGCGGCUAUAAACAGACCUCAGGCCCGAAGCGUGGCGGCACCUGCCGCCGGUGGUAAAAAAGAUCGGAAGAGCACACGUCU [U7C U10A U11C C12G C13A] | 1.2
GGGUCGCUGACGUAUAAUCGCGUGGAUAUGGCACGCAAGUUUCUACCGGGCACCGUAAAUGUCCGACUGGAGCCGUUCGGGCGGCUAUAAACAGACCUCAGGCCCGAAGCGUGGCGGCACCUGCCGCCGGUGGUAAAAAAGAUCGGAAGAGCACACGUCU [U7C U10A U11C C12G C13U] | 1.22
GGGUCGCUGACGGAUAAUCGCGUGGAUAUGGCACGCAAGUUUCUACCGGGCACCGUAAAUGUCCGACUGGAGCCGUUCGGGCGGCUAUAAACAGACCUCAGGCCCGAAGCGUGGCGGCACCUGCCGCCGGUGGUAAAAAAGAUCGGAAGAGCACACGUCU [U7C U10A U11C C12G C13G] | 1.31
GGGUCGCUGAAAUAUAAUCGCGUGGAUAUGGCACGCAAGUUUCUACCGGGCACCGUAAAUGUCCGACUGGAGCCGUUCGGGCGGCUAUAAACAGACCUCAGGCCCGAAGCGUGGCGGCACCUGCCGCCGGUGGUAAAAAAGAUCGGAAGAGCACACGUCU [U7C U10A U11A C12A C13U] | 1.21
GGGUCGCUGAAAGAUAAUCGCGUGGAUAUGGCACGCAAGUUUCUACCGGGCACCGUAAAUGUCCGACUGGAGCCGUUCGGGCGGCUAUAAACAGACCUCAGGCCCGAAGCGUGGCGGCACCUGCCGCCGGUGGUAAAAAAGAUCGGAAGAGCACACGUCU [U7C U10A U11A C12A C13G] | 1.11
GGGUCGCUGAAAAAUAAUCGCGUGGAUAUGGCACGCAAGUUUCUACCGGGCACCGUAAAUGUCCGACUGGAGCCGUUCGGGCGGCUAUAAACAGACCUCAGGCCCGAAGCGUGGCGGCACCUGCCGCCGGUGGUAAAAAAGAUCGGAAGAGCACACGUCU [U7C U10A U11A C12A C13A] | 1.17
GGGUCGCUGACACAUAAUCGCGUGGAUAUGGCACGCAAGUUUCUACCGGGCACCGUAAAUGUCCGACUGGAGCCGUUCGGGCGGCUAUAAACAGACCUCAGGCCCGAAGCGUGGCGGCACCUGCCGCCGGUGGUAAAAAAGAUCGGAAGAGCACACGUCU [U7C U10A U11C C12A] | 1.12
GGGUCGCUGACUCAUAAUCGCGUGGAUAUGGCACGCAAGUUUCUACCGGGCACCGUAAAUGUCCGACUGGAGCCGUUCGGGCGGCUAUAAACAGACCUCAGGCCCGAAGCGUGGCGGCACCUGCCGCCGGUGGUAAAAAAGAUCGGAAGAGCACACGUCU [U7C U10A U11C C12U] | 1.03
GGGUCGCUGACGCAUAAUCGCGUGGAUAUGGCACGCAAGUUUCUACCGGGCACCGUAAAUGUCCGACUGGAGCCGUUCGGGCGGCUAUAAACAGACCUCAGGCCCGAAGCGUGGCGGCACCUGCCGCCGGUGGUAAAAAAGAUCGGAAGAGCACACGUCU [U7C U10A U11C C12G] | 1.25

Variant | aptazyme ON/OFF ratio
GGGUCGCUGAAUGAUAAUCGCGUGGAUAUGGCACGCAAGUUUCUACCGGGCACCGUAAAUGUCCGACUGGAGCCGUUCGGGCGGCUAUAAACAGACCUCAGGCCCGAAGCGUGGCGGCACCUGCCGCCGGUGGUAAAAAAGAUCGGAAGAGCACACGUCU [U7C U10A U11A C12U C13G] | 1.16
GGGUCGCUGAAUUAUAAUCGCGUGGAUAUGGCACGCAAGUUUCUACCGGGCACCGUAAAUGUCCGACUGGAGCCGUUCGGGCGGCUAUAAACAGACCUCAGGCCCGAAGCGUGGCGGCACCUGCCGCCGGUGGUAAAAAAGAUCGGAAGAGCACACGUCU [U7C U10A U11A C12U C13U] | 1.27
GGGUCGCUGAAUAAUAAUCGCGUGGAUAUGGCACGCAAGUUUCUACCGGGCACCGUAAAUGUCCGACUGGAGCCGUUCGGGCGGCUAUAAACAGACCUCAGGCCCGAAGCGUGGCGGCACCUGCCGCCGGUGGUAAAAAAGAUCGGAAGAGCACACGUCU [U7C U10A U11A C12U C13A] | 1.28
GGGUCGCUGAACCAUAAUCGCGUGGAUAUGGCACGCAAGUUUCUACCGGGCACCGUAAAUGUCCGACUGGAGCCGUUCGGGCGGCUAUAAACAGACCUCAGGCCCGAAGCGUGGCGGCACCUGCCGCCGGUGGUAAAAAAGAUCGGAAGAGCACACGUCU [U7C U10A U11A] | 1.29
GGGUCGCUGACCCAUAAUCGCGUGGAUAUGGCACGCAAGUUUCUACCGGGCACCGUAAAUGUCCGACUGGAGCCGUUCGGGCGGCUAUAAACAGACCUCAGGCCCGAAGCGUGGCGGCACCUGCCGCCGGUGGUAAAAAAGAUCGGAAGAGCACACGUCU [U7C U10A U11C] | 1.04
GGGUCGCUGAGCCAUAAUCGCGUGGAUAUGGCACGCAAGUUUCUACCGGGCACCGUAAAUGUCCGACUGGAGCCGUUCGGGCGGCUAUAAACAGACCUCAGGCCCGAAGCGUGGCGGCACCUGCCGCCGGUGGUAAAAAAGAUCGGAAGAGCACACGUCU [U7C U10A U11G] | 1.46
GGGUCGCUGACCGAUAAUCGCGUGGAUAUGGCACGCAAGUUUCUACCGGGCACCGUAAAUGUCCGACUGGAGCCGUUCGGGCGGCUAUAAACAGACCUCAGGCCCGAAGCGUGGCGGCACCUGCCGCCGGUGGUAAAAAAGAUCGGAAGAGCACACGUCU [U7C U10A U11C C13G] | 1.01
GGGUCGCUGACCAAUAAUCGCGUGGAUAUGGCACGCAAGUUUCUACCGGGCACCGUAAAUGUCCGACUGGAGCCGUUCGGGCGGCUAUAAACAGACCUCAGGCCCGAAGCGUGGCGGCACCUGCCGCCGGUGGUAAAAAAGAUCGGAAGAGCACACGUCU [U7C U10A U11C C13A] | 1.02
GGGUCGCUGACCUAUAAUCGCGUGGAUAUGGCACGCAAGUUUCUACCGGGCACCGUAAAUGUCCGACUGGAGCCGUUCGGGCGGCUAUAAACAGACCUCAGGCCCGAAGCGUGGCGGCACCUGCCGCCGGUGGUAAAAAAGAUCGGAAGAGCACACGUCU [U7C U10A U11C C13U] | 1.01
GGGUCGCUGAACUAUAAUCGCGUGGAUAUGGCACGCAAGUUUCUACCGGGCACCGUAAAUGUCCGACUGGAGCCGUUCGGGCGGCUAUAAACAGACCUCAGGCCCGAAGCGUGGCGGCACCUGCCGCCGGUGGUAAAAAAGAUCGGAAGAGCACACGUCU [U7C U10A U11A C13U] | 1.19
GGGUCGCUGAACGAUAAUCGCGUGGAUAUGGCACGCAAGUUUCUACCGGGCACCGUAAAUGUCCGACUGGAGCCGUUCGGGCGGCUAUAAACAGACCUCAGGCCCGAAGCGUGGCGGCACCUGCCGCCGGUGGUAAAAAAGAUCGGAAGAGCACACGUCU [U7C U10A U11A C13G] | 1.2
GGGUCGCUGAACAAUAAUCGCGUGGAUAUGGCACGCAAGUUUCUACCGGGCACCGUAAAUGUCCGACUGGAGCCGUUCGGGCGGCUAUAAACAGACCUCAGGCCCGAAGCGUGGCGGCACCUGCCGCCGGUGGUAAAAAAGAUCGGAAGAGCACACGUCU [U7C U10A U11A C13A] | 1.28
GGGUCGCUGAAGUAUAAUCGCGUGGAUAUGGCACGCAAGUUUCUACCGGGCACCGUAAAUGUCCGACUGGAGCCGUUCGGGCGGCUAUAAACAGACCUCAGGCCCGAAGCGUGGCGGCACCUGCCGCCGGUGGUAAAAAAGAUCGGAAGAGCACACGUCU [U7C U10A U11A C12G C13U] | 1.17
GGGUCGCUGAAGAAUAAUCGCGUGGAUAUGGCACGCAAGUUUCUACCGGGCACCGUAAAUGUCCGACUGGAGCCGUUCGGGCGGCUAUAAACAGACCUCAGGCCCGAAGCGUGGCGGCACCUGCCGCCGGUGGUAAAAAAGAUCGGAAGAGCACACGUCU [U7C U10A U11A C12G C13A] | 1.11
GGGUCGCUGAAGGAUAAUCGCGUGGAUAUGGCACGCAAGUUUCUACCGGGCACCGUAAAUGUCCGACUGGAGCCGUUCGGGCGGCUAUAAACAGACCUCAGGCCCGAAGCGUGGCGGCACCUGCCGCCGGUGGUAAAAAAGAUCGGAAGAGCACACGUCU [U7C U10A U11A C12G C13G] | 1.33
GGGUCGCUGAUCGAUAAUCGCGUGGAUAUGGCACGCAAGUUUCUACCGGGCACCGUAAAUGUCCGACUGGAGCCGUUCGGGCGGCUAUAAACAGACCUCAGGCCCGAAGCGUGGCGGCACCUGCCGCCGGUGGUAAAAAAGAUCGGAAGAGCACACGUCU [U7C U10A C13G] | 1.05
GGGUCGCUGAUCAAUAAUCGCGUGGAUAUGGCACGCAAGUUUCUACCGGGCACCGUAAAUGUCCGACUGGAGCCGUUCGGGCGGCUAUAAACAGACCUCAGGCCCGAAGCGUGGCGGCACCUGCCGCCGGUGGUAAAAAAGAUCGGAAGAGCACACGUCU [U7C U10A C13A] | 1.06
GGGUCGCUGAUCUAUAAUCGCGUGGAUAUGGCACGCAAGUUUCUACCGGGCACCGUAAAUGUCCGACUGGAGCCGUUCGGGCGGCUAUAAACAGACCUCAGGCCCGAAGCGUGGCGGCACCUGCCGCCGGUGGUAAAAAAGAUCGGAAGAGCACACGUCU [U7C U10A C13U] | 1.04
